One assay concerns the target Kohinoor. Description: SEC; purified protein diluted to 10 μM, equilibrated at 6 °C overnight; 250 μL on Superdex 200 Increase 10/300 GL, run at 6 °C, 0.75 mL/min, absorption at 280 nm; elution volumes compared with tetrameric DsRed, dimeric dTomato and monomeric mEGFP.
The next assay concerns the target Padron. The description is as above.

In article PMC8291764 one finds stoichiometry N data, which are given here for 2 substances.

Broadly, the stoichiometry N is the number of molecules, sites or subunits per partner or assembly.

For Kohinoor, the stoichiometry N with Kohinoor was determined as 2.

Padron yielded a stoichiometry N with Padron of 4.
